Results taken from US20060264369.

Target: von Willebrand factor full length (Homo sapiens) (UniProt P04275)
Test: filter
Conditions: 3'-idT

## CGGCCGTGCGGTGCCUCCGUCACGUGCAGUGCCG [ARC1533]
2'-OMe/deoxy composite, single PS, internal PEG, 31.7% bound at 100 nM vWF
  Kd: 4 nM

## CGUGCAGUGCCGGCCGTGCGGTGCCUCCGUCACG [ARC1531]
2'-OMe/deoxy composite, single PS, internal PEG, 20.0% bound at 100 nM vWF
  Kd: 1.5 nM

## GGCGTGCAGTGCCGGCCGTGCGGTGCCTCCGTCACGCC [ARC1029]
Internal PEG spacer after GGCGTGCAGTGCC, DPBS, 0.1 mg/mL BSA, RT
  Kd: 1.4 nM

## GCGUGCAGUGCCGGCCGTGCGGTGCCUCCGUCACGC [ARC1527]
2'-OMe/deoxy composite, single PS, internal PEG, 14.1% bound at 100 nM vWF
  Kd: 3.4 nM

## CGUGCAGUGCCGGCCGTGCGGTGCCUCCGUCACG [ARC1532]
2'-OMe/deoxy composite, single PS, internal PEG, 19.3% bound at 100 nM vWF
  Kd: 2.6 nM

## GCGUGCAGUGCCGGCCGTGCGGTGCCUCCGUCACGC [ARC1528]
2'-OMe/deoxy composite, single PS, internal PEG, 10.2% bound at 100 nM vWF
  Kd: 4.2 nM

## GCGTGCAGTGCCTAGGCCGTGCGGTGCCTCCGTCACGCC [ARC1028]
Internal PEG spacer after GCGTGCAGTGCCT, DPBS, 0.1 mg/mL BSA, RT
  Kd: 1.1 nM
